Data taken from US20250283871A1, “COMPOSITIONS AND METHODS FOR MODULATING THE INTERACTION BETWEEN SS18-SSX FUSION ONCOPROTEIN AND NUCLEOSOMES” (Dana-Farber Cancer Institute, Inc., priority 2020, published 2025).

Columns and labels:
[1] = molecular target: TNR6B_HUMAN Trinucleotide repeat-containing gene 6B protein (human) (UniProt Q9UPQ9); assay: anti-SMARCA4 (BRG1) IP, mass spectrometry, human fibroblasts
[2] = molecular target: TRA2B_HUMAN Transformer-2 protein homolog beta (human) (UniProt P62995); assay: as above
[3] = molecular target: UBC_HUMAN Polyubiquitin-C (human) (UniProt P0CG48); assay: as above
[4] = molecular target: UBP2L_HUMAN Isoform 5 of Ubiquitin-associated protein 2-like (human) (UniProt Q14157); assay: as above
[5] = molecular target: UCRIL HUMAN Putative cytochrome b-c1 complex subunit Rieske-like protein 1 (human) (UniProt P0C7P4); assay: as above
[6] = molecular target: VIME_HUMAN Vimentin (human) (UniProt P08670); assay: as above
[7] = molecular target: XRN2_HUMAN 5'-3' exoribonuclease 2 (human) (UniProt Q9H0D6); assay: as above
[8] = molecular target: ZC11A_HUMAN Zinc finger CCCH domain-containing protein 11A (human) (UniProt O75152); assay: as above
[9] = molecular target: ZN326_HUMAN DBIRD complex subunit ZNF326 (human) (UniProt Q5BKZ1); assay: as above
[10] = molecular target: ACL6A_HUMAN Actin-like protein 6A (human) (UniProt O96019); assay: MS of BAF complexes from Aska-SS cells, shControl against shSS18-SSX, Rep 1
[11] = molecular target: ARI1B_HUMAN Isoform 3 of AT-rich interactive domain-containing protein 1B (human) (UniProt Q8NFD5); assay: as above
BCL7B (human) [12] = molecular target: BCL7B (human) (UniProt Q9BQE9); assay: as above
[13] = molecular target: BCL7C_HUMAN Isoform 2 of B-cell CLL/lymphoma 7 protein family member C (human) (UniProt Q8WUZ0); assay: as above
[14] = molecular target: SMCE1_HUMAN SWI/SNF-related matrix-associated actin-dependent regulator of chromatin subfamily E member 1 (human) (UniProt Q969G3); assay: as above
[15] = molecular target: SMRC1_HUMAN SWI/SNF complex subunit SMARCC1 (human) (UniProt Q92922); assay: as above
[16] = molecular target: SMRD1_HUMAN SWI/SNF-related matrix-associated actin-dependent regulator of chromatin subfamily D member 1 (human) (UniProt Q96GM5); assay: as above
[17] = molecular target: SNF5_HUMAN Isoform B of SWI/SNF-related matrix-associated actin-dependent regulator of chromatin subfamily B member 1 (human) (UniProt Q12824); assay: as above
SSX1; SSX8 (human) [18] = molecular target: SSX1; SSX8 (human) (UniProt Q16384); assay: as above
[19] = molecular target: SSXT_HUMAN Protein SSXT (human) (UniProt Q15532); assay: as above
[20] = molecular target: ACL6A_HUMAN Actin-like protein 6A (human) (UniProt O96019); assay: MS of BAF complexes from Aska-SS cells, shControl against shSS18-SSX, Rep 2
[21] = molecular target: ARI1B_HUMAN Isoform 3 of AT-rich interactive domain-containing protein 1B (human) (UniProt Q8NFD5); assay: as above
BCL7B (human) [22] = molecular target: BCL7B (human) (UniProt Q9BQE9); assay: as above
[23] = molecular target: BCL7C_HUMAN Isoform 2 of B-cell CLL/lymphoma 7 protein family member C (human) (UniProt Q8WUZ0); assay: as above
[24] = molecular target: SMCE1_HUMAN SWI/SNF-related matrix-associated actin-dependent regulator of chromatin subfamily E member 1 (human) (UniProt Q969G3); assay: as above
[25] = molecular target: SMRC1_HUMAN SWI/SNF complex subunit SMARCC1 (human) (UniProt Q92922); assay: as above
[26] = molecular target: SMRD1_HUMAN SWI/SNF-related matrix-associated actin-dependent regulator of chromatin subfamily D member 1 (human) (UniProt Q96GM5); assay: as above
[27] = molecular target: SNF5_HUMAN Isoform B of SWI/SNF-related matrix-associated actin-dependent regulator of chromatin subfamily B member 1 (human) (UniProt Q12824); assay: as above
SSX1; SSX8 (human) [28] = molecular target: SSX1; SSX8 (human) (UniProt Q16384); assay: as above
[29] = molecular target: SSXT_HUMAN Protein SSXT (human) (UniProt Q15532); assay: as above

“SMCA4_HUMAN Transcription activator BRG1 (from UniProt P51532 1-1647) (enzyme)” showed an NSAF [1] of 6.92e-05, an NSAF [2] of 0.00022 and an NSAF [3] of 9.25e-05. For the same substance, the NSAF [4] was 5.74e-05, the NSAF [5] was 0.000224 and the NSAF [6] was 0.000136. It also gave an NSAF [7] of 0, an NSAF [8] of 0 and an NSAF [9] of 0. It also gave an LFQ intensity ratio Aska (shControl)/Aska (shSS18-SSX), norm to SMARCA4 [10] of 0.784, an LFQ intensity ratio Aska (shControl)/Aska (shSS18-SSX), norm to SMARCA4 [11] of 0.721 and an LFQ intensity ratio Aska (shControl)/Aska (shSS18-SSX), norm to SMARCA4 (BCL7B (human) [12]) of 1.34. It also gave an LFQ intensity ratio Aska (shControl)/Aska (shSS18-SSX), norm to SMARCA4 [13] of 1.74, an LFQ intensity ratio Aska (shControl)/Aska (shSS18-SSX), norm to SMARCA4 [14] of 0.894 and an LFQ intensity ratio Aska (shControl)/Aska (shSS18-SSX), norm to SMARCA4 [15] of 0.506. The LFQ intensity ratio Aska (shControl)/Aska (shSS18-SSX), norm to SMARCA4 [16] was 0.771, the LFQ intensity ratio Aska (shControl)/Aska (shSS18-SSX), norm to SMARCA4 [17] was 0.0221 and the LFQ intensity ratio Aska (shControl)/Aska (shSS18-SSX), norm to SMARCA4 (SSX1; SSX8 (human) [18]) was 8.69. For the same substance, the LFQ intensity ratio Aska (shControl)/Aska (shSS18-SSX), norm to SMARCA4 [19] was 0.959, the LFQ intensity ratio Aska (shControl)/Aska (shSS18-SSX), norm to SMARCA4 [20] was 1.1 and the LFQ intensity ratio Aska (shControl)/Aska (shSS18-SSX), norm to SMARCA4 [21] was 0.65. For the same substance, the LFQ intensity ratio Aska (shControl)/Aska (shSS18-SSX), norm to SMARCA4 (BCL7B (human) [22]) was 1.13, the LFQ intensity ratio Aska (shControl)/Aska (shSS18-SSX), norm to SMARCA4 [23] was 1.54 and the LFQ intensity ratio Aska (shControl)/Aska (shSS18-SSX), norm to SMARCA4 [24] was 0.855. The LFQ intensity ratio Aska (shControl)/Aska (shSS18-SSX), norm to SMARCA4 [25] was 0.622, the LFQ intensity ratio Aska (shControl)/Aska (shSS18-SSX), norm to SMARCA4 [26] was 0.95 and the LFQ intensity ratio Aska (shControl)/Aska (shSS18-SSX), norm to SMARCA4 [27] was 0.0637. For the same substance, the LFQ intensity ratio Aska (shControl)/Aska (shSS18-SSX), norm to SMARCA4 (SSX1; SSX8 (human) [28]) was 66.8 and the LFQ intensity ratio Aska (shControl)/Aska (shSS18-SSX), norm to SMARCA4 [29] was 1.26.
